The source of these data is PMC8843743, “Targeting a proteolytic neoepitope on CUB domain containing protein 1 (CDCP1) for RAS-driven cancers” (The Journal of Clinical Investigation, 2022).

This assay concerns the target T1, NTF of recombinant c-CDCP1 cut 3 (human, UniProt Q9H5V8 30-369).
T1 construct: CUB domain containing protein 1 (CDCP1), human; NTF with the native cut site 3 (proteolysis after K369); NTF (aa 30-369); The NTF alone was also made as NTF-Fc; also called NTF (cut 3); NTF (aa 30-369); source: BirA-Expi293, cotransfected with the CTF plasmid, purified (protein A or Ni-NTA)
T1 sequence (looked up): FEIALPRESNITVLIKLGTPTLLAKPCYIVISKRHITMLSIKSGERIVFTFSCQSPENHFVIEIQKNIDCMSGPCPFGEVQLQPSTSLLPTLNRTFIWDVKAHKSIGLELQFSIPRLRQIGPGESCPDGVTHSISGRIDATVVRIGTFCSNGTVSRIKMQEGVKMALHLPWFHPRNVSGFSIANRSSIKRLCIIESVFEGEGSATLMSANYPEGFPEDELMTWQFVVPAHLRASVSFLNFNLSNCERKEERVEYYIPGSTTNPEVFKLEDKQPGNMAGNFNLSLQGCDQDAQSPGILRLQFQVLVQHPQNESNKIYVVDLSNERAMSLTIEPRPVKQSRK
Kind of assay: co-purification after co-expression; NTF and CTF ectodomain on separate plasmids cotransfected in BirA-Expi293; protein A or Ni-NTA affinity chromatography; SDS-PAGE. The conditions noted are these: partners not purified.

B1: CTF ectodomain of recombinant c-CDCP1 cut 3 (domain or fragment, human, UniProt Q9H5V8 370-665, looked up)
chain: FVPGCFVCLESRTCSSNLTLTSGSKHKISFLCDDLTRLWMNVEKTISCTDHRYCQRKSYSLQVPSDILHLPVELHDFSWKLLVPKDRLSLVLVPAQKLQQHTHEKPCNTSFSYLVASAIPSQDLYFGSFCPGGSIKQIQVKQNISVTLRTFAPSFQQEASRQGLTVSFIPYFKEEGVFTVTPDTKSKVYLRTPNWDRGLPSLTSVSWNISVPRDQVACLTFFKERSGVVCQTGRAFMIIQEQRTRAEEIFSLDEDVLPKPSFHHHSFWVNISNCSPTSGKQLDLLFSVTLTPRTVD
notes: CUB domain containing protein 1 (CDCP1), human; CTF ectodomain with the native cut site 3 (proteolysis after K369); CTF (aa 370-665); also called CTF (cut 3); CTF (aa 370-665); source: BirA-Expi293, cotransfected with the NTF plasmid, purified (protein A or Ni-NTA)
In the case of B1, the binding result is on record as “binds”.
